Results taken from publication PMC2688778 (Structure (London, England : 1993), 2009).

Target: T1, RecE564 P669A (Escherichia coli K12, UniProt P15032 564-866, P669A)
T1 sequence: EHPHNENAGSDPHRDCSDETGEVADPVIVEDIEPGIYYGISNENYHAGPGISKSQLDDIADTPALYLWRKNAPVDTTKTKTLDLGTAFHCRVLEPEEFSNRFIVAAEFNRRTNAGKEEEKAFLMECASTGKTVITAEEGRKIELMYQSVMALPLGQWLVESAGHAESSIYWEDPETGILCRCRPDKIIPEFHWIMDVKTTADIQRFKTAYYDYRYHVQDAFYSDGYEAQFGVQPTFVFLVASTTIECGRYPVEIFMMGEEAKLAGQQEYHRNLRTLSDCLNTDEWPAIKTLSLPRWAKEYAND
Assay: fluorescence anisotropy

B1: F25 (dsDNA)
DNA 1: TAGAGCTTAATTGCTGAATCTGGTG
DNA 2: CACCAGATTCAGCAATTAAGCTCTA
B1 gave a Kd of 109 ± 8 nM.
